The results in this text go back to the DeepSol protein solubility set.

The nature of the data set: soluble on expression in E. coli; label from the status in PepcDB or PDB records.
Consider “MCFHNSMSAKAIKVAARYGRQSDVVEIYQSILDEQYHVNAFTFPRYPIITSSDEVQVFNWGLIPFWVRSEEDATEIRKMTLNARADTIFEKPSFREPIMKKRCIVPSTGYFEWRHEGANKIPYYIYVKDEPIFSMAGIYDRWLDKDTGEEHETFSIITTDTNSLTDYIDNTKHRMPAILTQEEEEKWLNPSLSKAEIASLLKPFDTEKMDAYVIRNDFLKKSPNDPTIVQRALEHHHHHH”, for which the “soluble on expression in E. coli” value is “soluble”.
With “MCFRIADGTFFGWEGCFFQAGSCPGTCTHVWNYAQTVANLFPRLERNMRETEFLRETDGQGKMNFRAKIQLEGKPWDMYPAVDGQLGSILRVYREWKISGDDDFLKKIWNQVVSALEFSASYWDSNQDCVLDGQQHNTYDIEFYGVNSLGNSIYYAALKAGAEMAEYLGEHERSQKWRSMEQAGCKRMDEMLFNGEYYRQVTDGDIDEYKYQYGEGCLSDQLLGQTLAHLYGLGHLFPEDHVKSAVFAIYKYNFKERMGSHKSLQRGYAYQDEPGLLLCSWPSGGRPKQPFVYSDEVWTGIEYQVAAGLIYEGFLQEGLEIVRAVRSRYDGYKRNPFNEVECGNHYARSMASWGVLNALSGLQVDLPHNSVTISPKVNQDCFSSFYSTGTEWGICRQFKDQSGALIQSFEALYHADLEHHHHHH”, the “soluble on expression in E. coli” value was “not soluble”.
The entry for “MCFTKKSTKTPPEPISKDSADKKKKTTIKKGKKFPMMNMIVKNKKNEVQVEKKPEEVPEQNKSVKDQTKKEEVKVVEEDKVEKKVEQKKPIINRPNCVAINPRSATSGKKNKYKFKYGQIDQQELSINNDKTEYLENAQLTKLMSHADVRALMGGQFAQGENADTNNCQDTVEEVDSEMLEIAFSPLLAVIPREDERVYGAFVHPTEQKKNAEA” is “soluble”; for “MCMGGINDNLVRFVYKYKIKMKRERSAMNIEYMNQKVEFSLVRKERKSIKISVNRDFTIEVIAPFNVAEEEIKNVVYKKMKWIIKQMKRMENIIDINEEIKYSDGDAFYIFGTPYRLIVKKGIKNKMRIFGENVYMYIKEKDNYEYKKNYAEKWYKKIAAIELEYLYNEKYKIFDEIYDEKPKLIRKMKSKWGSYSPADNKVVLNTQLVKIPKTCIEYVIIHELCHVKFRNHRKEFYNYVNNFMPDWKLKKESLDRYVNVLEHHHHHH” it is “not soluble”; for “MCMGTRSKRSERGRCRMHLERCVCPAIPRYDLTTRVVLVMHHREYPKPTATGPLALAALPNSELRIHGERDSLLDLGDLATPERRTLLLYPGDDVPVLTRELLERDRRPVTLVVPDGTWRQASRMGRRLPGLDHAEMVRLPEGLPTEWGIRRENHPQGLATFEAIARALGIIESPAVQTGLEELFRLMVRRTLSAGGRAILEHHHHHH” it is “soluble”.
Regarding “MCQATNGPSRVVTKKHRKFFERHLQLLPSSHQGHDVNRMAIIFYSISGLSIFDVNVSAKYGDHLGWMRKHYIKTVLDDTENTVISGFVGSLVMNIPHATTINLPNTLFALLSMIMLRDYEYFETILDKRSLARFVSKCQRPDRGSFVSCLDYKTNCGSSVDSDDLRFCYIAVAILYICGCRSKEDFDEYIDTEKLLGYIMSQQCYNGAFGAHNEPHSGYTSCALSTLALLSSLEKLSDKFKEDTITWLLHRQVSSHGCMKFESELNASYDQSDDGGFQGRENKFADTCYAFWCLNSLHLLTKDWKMLCQTELVTNYLLDRTQKTLTGGFSKNDEEDADLYHSCLGSAALALIEGKFNGELCIPQEIFNDFSKRCCF”, the “soluble on expression in E. coli” value is given as “soluble”.
In the case of “MCSISRGKLSTVLKSTSSCIFENLAYEEHIFRTHNVAQNGEILLMWSNRPAVVIGRHQNPWIEVNIPYANKNNIQIVRRHSGGGTVYHDLGNLNISLLTTHAQHCRPKNLKFISDALNQQFSVKIVPNKRDDMELHPGERKCSGTAARIARGQAYHHLTLLVGADLQVLSKSLKSPWRDKIESNATRSVRAPAVGFLKQDDANANVEQSKLAIVEAYRKLFEESHIKTVNVAEEVKKNAEISKIFDELKAWKWIYGKSPKFQYSRENKSIIEMMRTAHKDREPWRDIRRMSKWQGVRVCDEPSPWYMSIPTPFSQFHNVLPEEQEEMVFTELKLFLVGNQTENIRIDEYDKHDLPISILANISFDPFIRSELERFHDILVTVATIKICCYAITHDSVTFSSISSAVASTIEKKVNGFITKICTKLSGSTEANQQMNQLLREMHTIHESLNFYNGIVKSIYLDQLIGGQVLSLLDSKRRHVFSGNVVQNLDDVFQAGWKVFARSIGRLVCKFEADHMDYEFVIWSTKQMTDSQCKTLVPSNPSRQIKSSRYVVIESLCPDFFKKYLDILVRCAEFGDSAKSDSSLRRSTSKKINESESVESVMEDVRNVDWSNLDVATTVRMLVQFSRKESACLLREITSATNVDQAIRDIHDLLIKGSCAHDVMLFGLKADILQKPIDEVGNIRMKKLTNDVLGAAAEKHHPFWKYFSFVIDKQNVFEMLGQRTSLGGNADNLRDNVTPMLFECISVKMDCPIEIEPIISMKAVFILTPVFRIWIQLHVASYTIANYRDSIRGQMPSRSLGDIAMKKHLMHALDAEISSIKQKWVGYVDLLINLYYERIQKAASLDEYTECQDILASDVTNMMGISELSQLENIKDILNIIWNYDNADSNLADLIADFEEVQSRARMDVVVA”, the “soluble on expression in E. coli” value was “not soluble”.
Consider “MDAALRRLQTFLSTIPQCDHTKYEGHYQQVFYIIFSLLGYYVDVEVRTSRGRVDVVLRTEATLYVMELKLDKNATVAMEQINLKNYPERFALCGLPVVKVAVNFDSESGTLGDWMIEK”, for which the “soluble on expression in E. coli” value is listed as “not soluble”.
Regarding “MDAIKKKMQAMKIEKDNALDRADAAEEKVRQITEKLERVEEELRDTQKKMTQTGDDLDKAQEDLSAATSKLEEKEKTVQEAEAEVASLNRRMTLLEEELERAEERLKIATEKLEEATHNVDESERVRKVMENRSLQDEERANTVEAQLKEAQLLAEEADRKYDEVARKLAMVEADLERAEERAEAGENKIVELEEELRVVGNNLKSLEVSEEKALQREDSYEEQIRTVSSRLKEAETRAEFAERSVQKLQKEVDRLEDELVHEKERYKTISEELDSTFQELSGY”, the “soluble on expression in E. coli” value is listed as “not soluble”.
As to “MDAPRINKWLKPLSALYGVGVRLRNYLFDKNVLISNSFDIPIVCVGNITIGGTGKTPHVEYLIRLLHPRYRVAVVSRGYKRKTKGMIVATEGSTAWDIGDEPRQIKRKYPDLTVIVDADRSRAIGYLCDLAEEQRPQLIVLDDGFQHRKVKADLNIVLTDYNRILTKDYLLPAGRLREPAGSIQRADMVILTKCPDDLAPIDLRAAKRDLALYPHQKLFFSKFLYGQGLKPLFSDQSPSAEVRSALAIAGIASPKLFFREIRTRFPSGTDRIYPDHHEFTDREICLLIQDWHELHRKDANAIVVCTEKDAMRLALRQSSFPQEMQERFYYLPVEVKLMFDQEKVFVDRLLGVIQHKKLEHHHHHH”, the “soluble on expression in E. coli” value is “not soluble”.
As for “MDAVSPLDAYERAVQRGFQPDQAQLQAVQQLQACYLALTESRGQAQGVYLWGPVGRGKTWLMDRFFESLNVPARRQHFHHFMRWVHKRMFELMGTPQPLTVVAKELARDVRVMCFDELFVTDIGDAVILGGLLQVMFEQGVVLVCTSNQPPDQLYSHGHNRERFLPAVAAIQKYMKVVAVDGGEDHRLHPGQLHQRYWVAQAGQPSALQGIFEALSAGQPVHDSQVMLGYRSINVVEHSDTAVWCRYRDLCEQPLAAMDFIALCDRFSVILLSEVPVLGAVQREAKIARGTEDGVEQVTAGDRELPQLSPNDDGVRRFIALVDECYDRRIPLYVEAPVPMDQLYTQGYLSFAFRRTLSRLQEMQLERFTESLEHHHHHH”, the “soluble on expression in E. coli” value is “not soluble”.
For “MDDHNALLAERHTIFQSSLMTALLDGIYDGEISIGELLGHGNFGIGTFDALDGEMVILDGVCYQLRGDGSASEAALTQRSPFAIATNFVPRLKARVPRGMHRSELSDFITSLLPSENYMYAVRISGMFSSVSVRTVTKQERPYRPMTQATGDDAELEFTNVSGVVAGFRTPIYEKGIGVPGCHVHFIDTDRTSGGHVLDFTMSEGTIEVCPGTDLQLRLPLTQDFSKASLAPDDLDAQIHATEVKG”, the “soluble on expression in E. coli” value is recorded as “not soluble”.
With “MDDPFASLEPLAVAPSGPEGVRAQFDQMEDIPPPRPRQPPPAQEDPVEIEVTEDGVARAFTEKYGGTLRFDHDAGRWYHWQEDHWQADTTSRAFEYCRRLARLASEGAKHSLLSTARKASFAGGVERLARADPAHAVTQEAWDRDPWLVACPGETVDLRTGRSAVPRPEDGITRRVAVAPAAQETCPTWWQFLEDATGADSSVMRFLQQWAGYSLTGITREHTLVFLYGDGGNGKSVFINTLTGLLGDYAATAGMETFTASKSDRHPTDLAMLAGARLVAASETEEGRAWAESRIKQMTGGDRITARFMRRDFFTYTPQFKLTLVGNHRPALANVKPVEPWALVVPAELETVAQQVLAEIAAAAVSDVNPFSGTLELIVEPGLTSATGWYLIGNPALHDGLAHAFLDGQSAPRIETRAGWNTLGMEFRLTWAVDAKFIGTASWFRNPGASGCPRCRPRNAQRQGVALLCLARRSEVLDRLEHHHHHH”, the “soluble on expression in E. coli” value is “not soluble”.
Regarding “MDEDVGLEATNYSRGDESRSEEQEKNVVRWRIVQQSTGPNPKPRHGHRAVVLKELIVIFGGGNEGMIDELHAYNTQKREWTAPQCCGDVPTPAAAFGAISLGNKIYRFGGMTEYGKYTNDLYELQSTRWEWRRLNPRVHSNGHLPCPRIGHSFVVSQKSQKAYVFGGLSNDLNDPKRNVPHYLDDLYVINLSGPQHLIWEKLNATGPGPISRESHTAVIYEKDSISRMVVYGGMNGVRLGDLWYLNLNTLHWTEIKFDDPRTGIPPMPRSLHSSVLIGDKMFVYGGWVPLLEHASTEQQTEKEWKCTSSLGCWNITEDRWVPLHLYCSDEDTIPRGRAGHCAAAVGDRMYIWSGRDGYRKAWSNQVCCRDMWLLDTILPEQPGKVQLGRAGFNSLEISWPIVQGASGYFLQIGFGDAKEQSVSPIKRATTSPRKQPSIVPPSQKETEQSPKKPQGTAPSIISTQGTTYTAPADPKPATDEGGLPQDLFEDTEKNETASPKRSNDAQSADSSTCEQKKTDESGLEEDSEKDQKPSDAGETDEMKEENGDDDLPWFDVGIIDKATINVTHYFNDRQQSLEKQLNDLIDHNAFKCVNDSVFTTEDKIPLINGQSYRFRVSAINGLGKGAWSETASCKTCVPGYPSAPSSIRITKSHEGAQLTWEPPSNTNISGKIIEYSVYLAVKNQSANSADSQLAFMRVYCGPQADCQVLQSNLGTAFVDQTNKPAIIFRIAARNEKGYGPATQVRWLQDQQKIPVRTNYPNNSGFIYQQHGGQQKRARFDHQ”, the “soluble on expression in E. coli” value is on record as “not soluble”.
With “MDEFYISIETVGNNIVERYIDENGKERTREVEYLPTMFRHCKEESKYKDIYGKNCAPQKFPSMKDARDWMKRMEDIGLEALGMNDFKLAYISDTYGSEIVYDRKFVRVANCDIEVTGDKFPDPMKAEYEIDAITHYDSIDDRFYVFDLLNSMYGSVSKWDAKLAAKLDCEGGDEVPQEILDRVIYMPFDNERDMLMEYINLWEQKRPAIFTGWNIEGFDVPYIMNRVKMILGERSMKRFSPIGRVKSKLLQNMYGSKEIYSIDGVSILDYLDLYKKFAFTNLPSFSLESVAQHETKKGKLPYDGPINKLRETNHQRYISYNIIDVESVQAIDKIRGFIDLVLSMSYYAKMPFSGVMSPIKTWDAIIFNSLKGEHKVIPQQGSHVKQSF”, the “soluble on expression in E. coli” value was “soluble”.
As to “MDEKLVKEVIFSFREVQRKTHHVLAEEAANREITTTQLLAIRELQKESDLTLGELAERMKLGKSTVSGIVDRLVKAGFLKRTRNESNRRALSLELTEKGATKAAETYHVFFNRLEPILEIGEERLKEMLEMHQEIITILEREGARD”, the “soluble on expression in E. coli” value was “not soluble”.
Consider “MDEMIFDPTMSKKKKKKKKPFMLDEEGDAQTEETQPSETKEVEPEPTEEKDVDADEEDSRKKDASDDLDDLNFFNQKKKKKKTKKIFDIDEAEEAIKDVKIESDAQEPAEPEDDLDIMLGNKKKKKKNVKFPEEDEILEKDEALEDEDSKKDDGISFSSQTAWAGSERDYTYEELLNRVFNIMREKNPDMVAGEKRKFVMKPPQVVRVGTKKTSFVNFTDICKLLHRQPKHLLAFLLAELGTSGSIDGNNQLVIKGRFQQKQIENVLRRYIKEYVTCHTCRSPDTILQKDTRLYFLQCETCHSRCSVASIKTGFQAVTGKRAQLRAKAN”, for which the “soluble on expression in E. coli” value is reported as “soluble”.
